Assay in all cases: positional peptide library pulldown on immobilised Nb, LC-MS of supernatant; signal ratio to control GFP-Nb (1 = not captured, near 0 = captured)
For test [1], the target named is T1, BC2T S8Y.
T1 construct: positional scanning library member
T1 peptide: Ac-PDRKAAVYHWQQ-NH2
In a few lines:
(§1)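 Unbound peptide left in supernatant after 1 h pulldown in PBS/0.01% CHAPS measured by reversed-phase LC-MS (8–30% eluent B gradient, 20 min).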

Test [2] has as its target T2, BC2T H9(I/L2) (N-terminal acetyl; C-terminal amide).
T2 construct: positional scanning library member; I or L not resolved
In a few lines: as §1

Test [3] deals with T3, BC2T H9K.
T3 construct: positional scanning library member
T3 peptide: Ac-PDRKAAVSKWQQ-NH2
The gist of the method: as §1

The target of test [4] is T4, BC2T Q11V.
T4 construct: positional scanning library member
T4 peptide: Ac-PDRKAAVSHWVQ-NH2
The gist of the method:
as §1

Test [5] deals with T5, BC2T W10(I/L2) (N-terminal acetyl; C-terminal amide).
T5 construct: positional scanning library member; I or L not resolved
The gist of the method: as §1

The target in test [6] is T6, BC2T W10P.
T6 construct: positional scanning library member
T6 peptide: Ac-PDRKAAVSHPQQ-NH2
In a few lines: as §1

Test [7] addresses T7, BC2T Q12A.
T7 construct: positional scanning library member
T7 peptide: Ac-PDRKAAVSHWQA-NH2
In a few lines: as §1

In test [8] the target is T8, BC2T W10F.
T8 construct: positional scanning library member
T8 peptide: Ac-PDRKAAVSHFQQ-NH2
The gist of the method:
as §1

Test [9] addresses T9, BC2T Q11W.
T9 construct: positional scanning library member
T9 peptide: Ac-PDRKAAVSHWWQ-NH2
In a few lines:
as §1

The target in test [10] is T10, BC2T Q12G.
T10 construct: positional scanning library member
T10 peptide: Ac-PDRKAAVSHWQG-NH2
The gist of the method:
as §1

For test [11], the target named is T11, BC2T H9A.
T11 construct: positional scanning library member
T11 peptide: Ac-PDRKAAVSAWQQ-NH2
The gist of the method: as §1

For test [12], the target named is T12, BC2T Q12T.
T12 construct: positional scanning library member
T12 peptide: Ac-PDRKAAVSHWQT-NH2
In a few lines:
as §1

For test [13], the target named is T13, BC2T S8T.
T13 construct: positional scanning library member
T13 peptide: Ac-PDRKAAVTHWQQ-NH2
In a few lines:
as §1

In test [14] the target is T14, BC2T Q11F.
T14 construct: positional scanning library member
T14 peptide: Ac-PDRKAAVSHWFQ-NH2
In a few lines:
as §1

In test [15] the target is T15, BC2T Q12(I/L1) (N-terminal acetyl; C-terminal amide).
T15 construct: positional scanning library member; I or L not resolved
In a few lines: as §1

Test [16] deals with T16, BC2T W10G.
T16 construct: positional scanning library member
T16 peptide: Ac-PDRKAAVSHGQQ-NH2
The gist of the method:
as §1

The target of test [17] is T17, BC2T Q11N.
T17 construct: positional scanning library member
T17 peptide: Ac-PDRKAAVSHWNQ-NH2
The gist of the method: as §1

Test [18] concerns the target T18, BC2T H9(I/L1) (N-terminal acetyl; C-terminal amide).
T18 construct: positional scanning library member; I or L not resolved
In a few lines:
as §1

In test [19] the target is T19, BC2T H9Y.
T19 construct: positional scanning library member
T19 peptide: Ac-PDRKAAVSYWQQ-NH2
In a few lines: as §1

This passage reports ratio results from patent US20170137467A1 (CHROMOTEK, published 2017).

Residue numbers refer to the chain shown, from its start.

B1: BC2 nanobody (VHH)
VHH: QVQLVESGGGLVQPGGSLTLSCTASGFTLDHYDIGWFRQAPGKEREGVSCINNSDDDTYYADSVKGRFTIFMDNAKDTVYLQMNSLKPEDTAIYYCAEARGCKRGRYEYDFWGQGTQVTVSS
notes: immobilised on beads in this assay; also called BC2-Nb; BC2 nanotrap (immobilised)
B1: the ratio was determined as 0.6 in test [1]; 0.1 in test [2]; 0.2 in [3]; 0.1 in test [4]; 1 in test [5]; 1.1 in test [6]. Moreover, the ratio in test [7] worked out at 0.1; in test [8] it was 0.9; in [9], 0; in test [10], 0.2; in test [11] it was 0.2; in test [12], 0.1. Moreover, the ratio in test [13] worked out at 0.1; in test [14] it was 0; in [15], 0.1; in [16] it was 1.2; in test [17] it was 0.1; in test [18], 0.3. In test [19], the ratio turned out to be 0.1.

B2: BC2-NbR106S (VHH)
VHH: B1 VHH with R106S
notes: headlock mutant of BC2-Nb; immobilised on beads in this assay
With B2, the ratio in test [1] was 0.9; in test [2], 0.3; in test [3], 0.3; in [4], 0.2; in test [5], 1.1; in test [6], 1.1. Further, the ratio in test [7] turned out to be 0.3; in [8], 1.1; in test [9], 0.1; in test [10] it was 0.4; in [11] it was 0.5; in [12], 0.3. Besides, the ratio in [13] stood at 0.2; in test [14], 0.2; in test [15], 0.2; in [16] it was 1.1; in test [17], 0.3; in test [18] it was 0.5. Moreover, the ratio in test [19] was found to be 0.2.
